Data: paper doi:10.1101/2025.08.06.668955, “High-Affinity, Structure-Validated and Selective Macrocyclic Peptide Tools for Chemical Biology Studies of Huntingtin” (bioRxiv, 2025)
Values belong to the molecule of their own block, whether it stands above or below them. Where a SMILES comes first, the peptide text is derived from it. Bridges are numbered along the chain shown (N, C = ends). Primed or numbered codes have the meaning given here. Where no end group is shown, it is not given here. [ ]: non-standard residue; d: D form. The star is where a group is joined. FITC″ = fluorescein isothiocyanate; ClAc = O=C(CCl)*

Key:
HAP40 = assay: Macrocycle precipitation (MP), co-purification of HAP40, LC-MS/MS; assay type: binding, human; conditions: HEK293T lysate versus HTT CRISPR knockout line
Source text: To assess macrocycle selectivity and identify potential HTT interacting proteins, we performed LC-MS/MS analysis of the proteins in the MP eluates. To control for non-specific binding, we performed MPs using lysates from a HTT CRISPR knockout cell line ([Jung et al., 2021]). Across all macrocycles, HTT emerged as the most enriched protein after background subtraction (Figure 5b). Given we performed affinity purification using macrocycles targeting distinct HTT surfaces, we hypothesized that any real HTT protein binder might be co-purified with two or more macrocycles. […] In contrast, HAP40 was not enriched by HL5, consistent with its specificity for apo HTT.
Macrocycles were pre-conjugated to streptavidin beads (Cytiva, 17-5113-01) by incubating with a 30 μL slurry of beads per macrocycle purification (MP) in Lysis Buffer (10 mM Tris-HCl, pH 7.9, 150 mM NaCl, 0.1% NP-40, 1:500 protease inhibitor cocktail (Sigma-Aldrich), 1:1,000 benzonase nuclease, and 2 mM MgCl2) for 1 hour at 4°C. A concentration of 1.25 μM macrocycle was used for conjugation. After incubation, beads were washed three times with 500 μL Lysis Buffer to remove unbound macrocycles and resuspended in 500 μL of lysate at 4 mg/mL protein concentration.
Cells were harvested by centrifugation at 1,500 rpm for 5 minutes, washed twice with PBS, and snap-frozen. Cell pellets were then resuspended in 500 μL of Lysis Buffer (as described above) and incubated on an end-over-end rotator at 4°C for 1 hour. Lysates were clarified by centrifugation at 20,000g for 15 minutes at 4°C, and the supernatant was transferred to fresh 1.5 mL Eppendorf tubes. Protein concentration was determined by BCA assay (Thermo Fisher Scientific, 23225), yielding approximately 4 mg of protein on average. Lysates were diluted to a final concentration of 4 mg/mL for use, providing […] of total protein per MP.
Macrocycle-conjugated beads were incubated with 2 mg of lysate in Lysis Buffer for 1 hour at 4°C with rotation. After incubation, beads were collected by centrifugation at 3,000 rpm, and the flow-through was saved for analysis. Beads were then washed sequentially with 1 mL of Wash Buffer 1 (10 mM Tris-HCl, pH 7.9, 100 mM NaCl, 0.1% NP-40) and twice with Wash Buffer 2 (Wash Buffer 1 without detergent). Lastly, bound proteins were eluted from the beads with 200 μL of 0.5 M NH4OH and flash-frozen in liquid nitrogen.
All sample preparation, LC MS/MS data collection, and MS data searches were carried out at the SPARC BioCentre at The Hospital for Sick Children (Toronto, ON, Canada). […] Samples were analyzed by liquid chromatography tandem mass spectrometry (LC-MS/MS) using an EASY-nanoLC 1200 system with a 1 h analysis and an Orbitrap Fusion™ Lumos™ Tribrid™ Mass Spectrometer (Thermo Fisher Scientific). […]

HTT-HAP40 or HTT (HL5) = assay: FP displacement assay, FITC-labeled and unlabeled macrocycle pairs; assay type: binding; conditions: FITC-labeled HHL1 on HTT-HAP40; biological singlet in technical triplicate
Source text: We further verified the specificity of binding of the macrocycles for HTT and HTT-HAP40 by displacement assay (Supplementary Figure 3) with FITC-labeled and unlabeled macrocycle pairs. All labelled macrocycles were displaced by their sequence-matched unlabeled macrocycle, with IC50 values in the nanomolar range.
57 Supplementary Figure 3. Displacement of fluorescently labeled macrocycles. a, Schematic for
58 assay. b, Each fluorescently labeled macrocycle is displaced by its unlabeled partner from HTT-
59 HAP40 or HTT (HL5) Conducted as a biological singlet in technical triplicate. c, Fluorescently
60 labeled HHL1 is displaced by itself and HHD3, but no other macrocycle.
(§1) (1 picture or pasted object on this page, not shown here)

HTTQ23-HAP40 [1] = biological target: T1, HTTQ23-HAP40 (Homo sapiens, UniProt P23610+P42858, INS38QQ); assay: Thermal shift assay (DSF), HTTQ23-HAP40; assay type: binding; conditions: SYPRO Orange, 0.25 mg/mL protein, macrocycle up to 10 μM, 2.5% DMSO, n=3
T1 construct: Full-length wildtype HTT with a polyQ tract of 23 glutamines; FLAG; made in house; host or cells: Sf9 insect cells (baculovirus)
Description: In an Axygen® 384-well PCR microplate (REF# PCR-384-LC480-W-NF, Corning), samples were mixed to yield a final concentration of 0.25 mg/mL Q54 or Q23/HAP40, a 5-pt 2-fold serial dilution of each macrocycle (top concentration of 10 μM, 2.5% DMSO), and 5X SYPRO™ Orange (CAT# S6650, Thermo Fisher Scientific) in buffer (20 mM HEPES pH 7.4, 150 mM NaCl, 1 mM TCEP, 0.005% Tween-20). Differential Scanning Fluorimetry (DSF) was performed using a LightCycler® 480 (Roche LifeSciences) set to a 4 °C/min temperature ramp (20–95 °C) and fluorescence detection at 580 nm. Melting temperatures (Tm) were obtained from the minima of the negative derivative of each curve. The propagated error of the thermal shift (ΔTm) was calculated from the standard deviation of each Tm mean (n=3). To ensure a maximally macrocycle-bound fraction (KD ~10 nM; ~100% bound) at 0.25 mg/mL HTT or HTT-HAP40 (~0.7 μM), the upper limit of macrocycle tested was 10 μM.
98 Supplementary Figure. 10. Thermal shift (ΔTm) induced by macrocycle binding. Melting
99 temperature of HTTQ54 (left) with HL5 or HL2 minus HTTQ54 with DMSO (46.5 °C), and (right)
100 HTTQ23-HAP40 with HD4, HL2, HL5, HHD2, HHD3, or HHL1 minus HTTQ23-HAP40 with DMSO
101 (51.0 °C). ΔTm significance was determined using an unpaired t-test with Welch correction,
102 comparing to the mean Tm of Q54 or Q23-HAP40 with DMSO; *P < 0.05, **P < 0.01, ***P <
103 0.001. The summary table reports the ΔTm and exact P value at the highest concentration tested
as §1

[2] = biological target: T2, 40-kDa huntingtin-associated protein (HAP40), chain of the HTT-HAP40 complex used for cryo-EM (UniProt P23610 1-371); assay: cryo-EM structure; HTT-HAP40 macrocycle complexes at 0.2 mg/ml in 25 mM HEPES pH 7.4, 150 mM NaCl, 0.025% CHAPS on graphene grids; Complex1 (HHL1, HL2, HD4) and Complex2 (HHD3, HL2, HD4); conditions: both partners purified
T2 construct: 40-kDa huntingtin-associated protein (HAP40); model built from PDB 6X90; The HAP40 chain of m26, for the pairs that touch in the structures
T2 sequence (looked up): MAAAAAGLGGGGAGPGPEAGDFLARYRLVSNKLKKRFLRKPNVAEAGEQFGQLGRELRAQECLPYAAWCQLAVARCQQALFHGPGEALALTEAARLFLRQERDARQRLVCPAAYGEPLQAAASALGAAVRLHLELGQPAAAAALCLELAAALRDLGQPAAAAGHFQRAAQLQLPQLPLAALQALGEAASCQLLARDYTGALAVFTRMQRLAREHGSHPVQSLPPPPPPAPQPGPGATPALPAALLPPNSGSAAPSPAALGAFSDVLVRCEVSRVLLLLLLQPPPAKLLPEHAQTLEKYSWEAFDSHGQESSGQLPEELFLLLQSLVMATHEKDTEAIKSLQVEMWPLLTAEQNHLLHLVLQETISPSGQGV

HTTQ54 (apo) = assay: FP
HTTQ23-HAP40 [3] = biological target: HTTQ23-HAP40 (UniProt P23610 1-371); assay: FP
[4] = biological target: Full-length wildtype HTT with a polyQ tract of 23 glutamines, apo form (HTTQ23); assay: FP
[5] = biological target: C-terminally biotinylated HTTQ23 in complex with HAP40 (UniProt P23610 1-371, biotin on the C-terminal Avi-tag); assay: SPR
[6] = biological target: C-terminally biotinylated HTTQ23 (apo) (biotin on the C-terminal Avi-tag); assay: SPR
C-terminally biotinylated HTTQ23 (apo) (biotin on the C-terminal Avi-tag), sequence (P42858 other isoform, or with tags, fused parts or gaps): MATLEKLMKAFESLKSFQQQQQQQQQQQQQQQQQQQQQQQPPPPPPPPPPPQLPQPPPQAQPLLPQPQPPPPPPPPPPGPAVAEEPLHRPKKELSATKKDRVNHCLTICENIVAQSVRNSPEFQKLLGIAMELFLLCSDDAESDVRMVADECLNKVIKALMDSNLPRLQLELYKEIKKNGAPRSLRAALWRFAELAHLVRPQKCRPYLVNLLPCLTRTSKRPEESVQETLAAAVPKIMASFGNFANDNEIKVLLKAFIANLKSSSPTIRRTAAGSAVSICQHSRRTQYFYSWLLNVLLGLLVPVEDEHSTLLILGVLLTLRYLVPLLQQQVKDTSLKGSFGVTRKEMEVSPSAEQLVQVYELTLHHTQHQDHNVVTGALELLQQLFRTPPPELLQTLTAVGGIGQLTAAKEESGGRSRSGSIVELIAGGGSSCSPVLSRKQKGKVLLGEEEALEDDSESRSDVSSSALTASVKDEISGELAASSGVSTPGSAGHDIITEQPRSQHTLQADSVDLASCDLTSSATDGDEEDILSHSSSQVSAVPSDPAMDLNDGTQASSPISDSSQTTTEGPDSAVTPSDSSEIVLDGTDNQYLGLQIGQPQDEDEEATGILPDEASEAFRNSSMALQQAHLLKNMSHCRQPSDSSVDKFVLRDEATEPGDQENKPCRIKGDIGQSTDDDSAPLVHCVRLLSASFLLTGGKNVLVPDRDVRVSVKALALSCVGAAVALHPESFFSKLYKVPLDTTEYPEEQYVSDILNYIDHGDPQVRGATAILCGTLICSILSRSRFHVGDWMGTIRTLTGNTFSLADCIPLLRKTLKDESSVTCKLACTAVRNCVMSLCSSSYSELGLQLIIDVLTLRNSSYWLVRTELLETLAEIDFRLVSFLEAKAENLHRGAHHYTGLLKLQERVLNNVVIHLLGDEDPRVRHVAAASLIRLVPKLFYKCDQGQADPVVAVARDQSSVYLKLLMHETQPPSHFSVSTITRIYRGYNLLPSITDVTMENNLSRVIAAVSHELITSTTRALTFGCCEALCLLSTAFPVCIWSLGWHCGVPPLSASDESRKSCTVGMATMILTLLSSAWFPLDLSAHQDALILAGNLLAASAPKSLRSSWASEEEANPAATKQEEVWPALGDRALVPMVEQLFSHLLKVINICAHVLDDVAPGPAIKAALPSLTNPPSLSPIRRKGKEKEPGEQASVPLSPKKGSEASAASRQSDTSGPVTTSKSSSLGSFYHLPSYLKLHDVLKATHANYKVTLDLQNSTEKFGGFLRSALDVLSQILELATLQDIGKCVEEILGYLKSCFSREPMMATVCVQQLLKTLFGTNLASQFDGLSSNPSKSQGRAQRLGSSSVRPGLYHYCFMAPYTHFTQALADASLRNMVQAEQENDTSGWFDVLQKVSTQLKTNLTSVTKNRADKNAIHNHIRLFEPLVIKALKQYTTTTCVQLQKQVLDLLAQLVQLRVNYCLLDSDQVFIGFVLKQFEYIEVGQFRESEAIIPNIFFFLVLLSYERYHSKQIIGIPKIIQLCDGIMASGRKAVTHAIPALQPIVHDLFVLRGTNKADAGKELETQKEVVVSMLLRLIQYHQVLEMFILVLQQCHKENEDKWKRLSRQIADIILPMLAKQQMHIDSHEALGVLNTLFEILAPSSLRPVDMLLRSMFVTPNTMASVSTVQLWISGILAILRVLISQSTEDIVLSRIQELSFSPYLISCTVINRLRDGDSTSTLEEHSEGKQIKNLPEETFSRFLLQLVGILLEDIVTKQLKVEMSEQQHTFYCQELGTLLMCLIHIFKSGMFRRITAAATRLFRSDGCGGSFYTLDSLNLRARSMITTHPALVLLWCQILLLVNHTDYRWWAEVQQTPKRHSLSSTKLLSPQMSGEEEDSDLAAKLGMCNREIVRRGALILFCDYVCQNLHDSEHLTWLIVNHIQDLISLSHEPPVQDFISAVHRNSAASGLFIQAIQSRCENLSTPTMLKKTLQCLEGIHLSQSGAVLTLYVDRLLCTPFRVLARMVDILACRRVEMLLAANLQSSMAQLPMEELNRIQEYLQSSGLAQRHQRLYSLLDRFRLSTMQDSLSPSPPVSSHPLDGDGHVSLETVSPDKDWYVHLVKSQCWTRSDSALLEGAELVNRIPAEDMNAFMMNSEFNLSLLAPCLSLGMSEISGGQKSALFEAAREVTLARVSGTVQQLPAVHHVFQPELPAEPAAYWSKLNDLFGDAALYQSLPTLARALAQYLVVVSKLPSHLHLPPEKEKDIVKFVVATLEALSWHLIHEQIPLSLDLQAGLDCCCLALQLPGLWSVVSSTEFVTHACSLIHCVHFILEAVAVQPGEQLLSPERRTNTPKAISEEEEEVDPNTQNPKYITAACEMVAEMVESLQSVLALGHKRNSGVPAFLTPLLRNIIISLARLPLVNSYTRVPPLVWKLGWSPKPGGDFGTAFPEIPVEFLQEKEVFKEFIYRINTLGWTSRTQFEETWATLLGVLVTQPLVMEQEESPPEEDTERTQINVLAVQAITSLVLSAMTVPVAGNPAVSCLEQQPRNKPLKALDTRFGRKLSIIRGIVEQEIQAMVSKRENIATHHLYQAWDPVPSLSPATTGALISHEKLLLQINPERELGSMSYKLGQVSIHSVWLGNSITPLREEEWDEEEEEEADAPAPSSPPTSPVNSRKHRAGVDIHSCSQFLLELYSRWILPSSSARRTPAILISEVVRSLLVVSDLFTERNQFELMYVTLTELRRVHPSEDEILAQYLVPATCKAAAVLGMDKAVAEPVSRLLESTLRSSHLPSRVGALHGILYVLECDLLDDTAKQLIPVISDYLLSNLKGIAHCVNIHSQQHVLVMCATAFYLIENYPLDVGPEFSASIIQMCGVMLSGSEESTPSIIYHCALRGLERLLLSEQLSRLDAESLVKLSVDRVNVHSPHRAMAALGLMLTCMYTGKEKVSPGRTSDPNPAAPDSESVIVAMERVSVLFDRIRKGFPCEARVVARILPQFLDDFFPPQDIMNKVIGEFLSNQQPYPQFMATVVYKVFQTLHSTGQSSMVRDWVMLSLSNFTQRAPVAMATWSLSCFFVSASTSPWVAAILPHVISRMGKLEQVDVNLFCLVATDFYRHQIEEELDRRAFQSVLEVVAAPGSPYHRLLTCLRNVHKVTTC

C-terminally biotinylated HTTQ23 in complex with HAP40, sequence (P42858 other isoform, or with tags, fused parts or gaps, chain 1 of 2, one chain of several): as the sequence (P42858 other isoform, or with tags, fused parts or gaps) above
T1 sequence (P42858 with tags, fused parts or gaps INS38QQ, one chain of several): as the sequence (P42858 other isoform, or with tags, fused parts or gaps) above, with H2311Y, I2788V counted along it
Full-length wildtype HTT with a polyQ tract of 23 glutamines, apo form (HTTQ23), sequence (P42858 other isoform, or with tags, fused parts or gaps): as the sequence (P42858 other isoform, or with tags, fused parts or gaps) above

- Displacement of fluorescently labeled HHL1 by unlabeled macrocycle (HTT-HAP40 or HTT (HL5)): displaced
- Thermal shift (ΔTm) of HTTQ23-HAP40 induced by macrocycle (HTTQ23-HAP40 [1]): stabilized
Molecule: CC[C@H](C)[C@@H]1NC(=O)[C@H](Cc2c[nH]c3ccccc23)NC(=O)[C@H](Cc2c[nH]c3ccccc23)NC(=O)[C@H](CC(N)=O)NC(=O)[C@H](CC(N)=O)NC(=O)[C@H](CCC(N)=O)NC(=O)[C@H](Cc2c[nH]c3ccccc23)NC(=O)[C@H](Cc2c[nH]cn2)NC(=O)[C@H](CCCNC(=N)N)NC(=O)[C@H]([C@@H](C)O)NC(=O)[C@@H](Cc2ccc(O)cc2)NC(=O)CSC[C@@H](C(N)=O)NC(=O)[C@H](Cc2ccccc2)NC(=O)[C@H](CCC(=O)O)NC(=O)[C@H](Cc2c[nH]cn2)NC(=O)[C@H](Cc2ccc(O)cc2)NC(=O)[C@H](CC(C)C)NC1=O [HHD3] ({CH2CO}-[dY]TRHWQNNWWILYHEFC-NH2; thioether N-17; C-terminus assumed)
- Enrichment of HAP40 in macrocycle pulldowns (HAP40): consistently enriched

- Displacement of fluorescently labeled HHL1 by unlabeled macrocycle (HTT-HAP40 or HTT (HL5)): displaced
- Thermal shift (ΔTm) of HTTQ23-HAP40 induced by macrocycle (HTTQ23-HAP40 [1]): stabilized
Molecule: CC[C@H](C)[C@@H]1NC(=O)[C@H](CC(C)C)NC(=O)[C@H](Cc2ccc(O)cc2)NC(=O)CSC[C@@H](C(N)=O)NC(=O)[C@@H]2CCCN2C(=O)[C@H](C(C)C)NC(=O)[C@H](CCC(=O)O)NC(=O)[C@H](C(C)C)NC(=O)[C@H](Cc2ccccc2)NC(=O)[C@H](C(C)C)NC(=O)[C@H](Cc2ccccc2)NC(=O)[C@H](Cc2c[nH]c3ccccc23)NC(=O)[C@H](CC(N)=O)NC(=O)[C@H](Cc2ccccc2)NC(=O)[C@H](CO)NC(=O)[C@H](CO)NC(=O)[C@H](CCCNC(=N)N)NC1=O [HHL1] ({CH2CO}-YLIRSSFNWFVFVEVPC-NH2; thioether N-17; C-terminus assumed)

More lines, now with the values behind:

B1: HHD3 (peptide)
peptide: {CH2CO}-[dY]TRHWQNNWWILYHEFC
modifications: thioether N-17 (inferred)
notes: macrocyclic peptide selected by RaPID on HTT-HAP40; printed with a superscript D before the first Y (D-tyrosine); also called macrocycle HHD3; source: synthetic peptide (Fmoc SPPS, RP-HPLC), without tags
- binding result [2]: binds

B2: FITC-labeled HD4 (peptide)
peptide: ClAc-[dY]DIWCETNKQTGILVLC-{FITC″}
modifications: thioether (positions not given here); also: thioether to downstream Cys, which of Cys5/Cys17 not given here
- Kd (HTTQ54 (apo)): 1.5 nM
- Kd (HTTQ23-HAP40 [3]): 1.6 nM
- Kd [4]: 7.3 nM

B3: HHL1 (peptide)
peptide: {CH2CO}-YLIRSSFNWFVFVEVPC
modifications: thioether N-17 (inferred)
notes: macrocyclic peptide selected by RaPID on HTT-HAP40; also called macrocycle HHL1; source: synthetic peptide (Fmoc SPPS, RP-HPLC), without tags
- binding result [2]: binds
- Kd [5]: 7 nM

Molecule: {CH2CO}-YTHFQVAPWIQSLC (thioether N-14 (inferred)) [HL5]
- Kd [6]: 10 nM

B4: HD4 (peptide)
peptide: ClAc-[dY]DIWCETNKQTGILVLC
modifications: thioether (positions not given here); also: thioether to downstream Cys, which of Cys5/Cys17 not given here
- Kd [5]: 2.1 nM
- Kd [6]: 4.1 nM
